Data: article PMC9702538

Experiments:
[1] = target: zebrafish Comp, tissue-derived (zebrafish (endogenous in 5 dpf whole zebrafish)); test: non-reducing agarose/polyacrylamide composite gel electrophoresis; sequential extracts (TBS; 1 M NaCl/EDTA; 8 M urea) of whole 5 dpf zebrafish; 0.5% agarose/3% polyacrylamide composite gel, non-reducing; immunoblot with guinea pig antibodies to zebrafish Comp
[2] = target: recombinant zebrafish Comp (cartilage oligomeric matrix protein) (zebrafish); test: non-reducing agarose/polyacrylamide composite gel electrophoresis; purified recombinant Comp; 0.5% agarose/3% polyacrylamide composite gel, SDS sample buffer with 2 M urea, non-reducing; immunoblot with guinea pig antibodies to zebrafish Comp; recombinant rat COMP as marker of the pentamer

stoichiometry N [1]	stoichiometry N [2]	Substance
5		zebrafish Comp, tissue-derived (natural protein)
	5	recombinant zebrafish Comp (cartilage oligomeric matrix protein)
